Source: FireProtDB (doi:10.1042/bj2870481)

Settings: Aspergillus oryzae (strain ATCC 42149 / RIB 40), 25 °C, GdnHCl, Absorbance, Unknown, KCl 0.1 M, reversible: yes, whole UniProt chain shown

B1: Guanyl-specific ribonuclease T1 wild type, P00651 (protein)
chain: MMYSKLLTLTTLLLPTALALPSLVERACDYTCGSNCYSSSDVSTAQAAGYQLHEDGETVGSNSYPHKYNNYEGFDFSVSSPYYEWPILSSGDVYSGGSPGADRVVFNENNQLAGVITHTGASGNNFVECT
In the case of B1, the denaturant m value (pH 1.3) is reported as 2.03 kcal/mol/M, the “denaturant midpoint (higher = more stable)” value (from here on “denaturant midpoint”) (pH 1.3) is reported as 0.93 M and the unfolding free energy (pH 1.3) is reported as 1.9 kcal/mol. For the same protein, the denaturant m value (pH 3) was 2.91 kcal/mol/M, the “denaturant midpoint” value (pH 3) was 1.94 M and the unfolding free energy (pH 3) was 5.66 kcal/mol. For the same protein, the denaturant m value (pH 7) was 2.93 kcal/mol/M, the “denaturant midpoint” value (pH 7) was 2.97 M and the unfolding free energy (pH 7) was 8.74 kcal/mol.
